# T1: GST-KIAA0807(S) PDZ domain 1 (Homo sapiens (Human)), Q6P0Q8
# T1 chain: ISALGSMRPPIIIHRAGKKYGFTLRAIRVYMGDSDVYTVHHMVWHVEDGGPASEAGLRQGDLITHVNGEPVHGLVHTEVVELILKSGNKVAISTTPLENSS
# T2: GST-Shank 1 PDZ domain 1 (Homo sapiens (Human)), Q9UPX8
# T2 chain: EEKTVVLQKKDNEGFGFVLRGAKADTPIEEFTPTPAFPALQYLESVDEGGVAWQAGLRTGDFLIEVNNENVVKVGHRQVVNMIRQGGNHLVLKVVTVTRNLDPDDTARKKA
# T3: GST-DLG1 PDZ domain 2 (Homo sapiens), Q12959
# T3 chain: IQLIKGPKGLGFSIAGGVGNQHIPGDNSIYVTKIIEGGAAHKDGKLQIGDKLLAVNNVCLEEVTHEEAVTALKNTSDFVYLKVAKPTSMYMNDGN
# T4: GST-MINT1 PDZ domains 1, 2, Q02410
# T4 chain: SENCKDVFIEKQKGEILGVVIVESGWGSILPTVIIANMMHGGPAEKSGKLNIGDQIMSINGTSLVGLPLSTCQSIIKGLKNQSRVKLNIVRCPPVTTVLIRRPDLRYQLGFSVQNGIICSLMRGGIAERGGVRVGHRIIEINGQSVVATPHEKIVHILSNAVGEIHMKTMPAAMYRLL
# T5: GST-PTPL1 PDZ domain 4 (Homo sapiens (Human)), Q12923
# T5 chain: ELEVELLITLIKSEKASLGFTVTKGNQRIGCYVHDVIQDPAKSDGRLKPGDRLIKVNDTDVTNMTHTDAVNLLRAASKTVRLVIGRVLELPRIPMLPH
# T6: GST-APXL-1 PDZ domain 1 (Homo sapiens (Human)), Q13796
# T6 chain: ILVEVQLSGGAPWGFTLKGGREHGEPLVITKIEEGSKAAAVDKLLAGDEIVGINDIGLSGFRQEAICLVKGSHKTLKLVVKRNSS
# T7: GST-AIPC PDZ domain 1 (Homo sapiens (Human)), O15018
# T7 chain: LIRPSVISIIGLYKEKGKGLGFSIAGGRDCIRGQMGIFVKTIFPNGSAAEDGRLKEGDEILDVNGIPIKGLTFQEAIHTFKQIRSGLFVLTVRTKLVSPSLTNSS
# T8: GST-KIAA0382 PDZ domain 1 (Canis lupus familiaris (Dog) (Canis familiaris)), A0A8I3
# T8 chain: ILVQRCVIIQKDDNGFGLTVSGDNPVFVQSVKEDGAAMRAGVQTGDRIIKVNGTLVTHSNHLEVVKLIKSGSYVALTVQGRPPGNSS
# T9: GST-PTPL1 PDZ domain 2 (Homo sapiens (Human)), Q12923
# T9 chain: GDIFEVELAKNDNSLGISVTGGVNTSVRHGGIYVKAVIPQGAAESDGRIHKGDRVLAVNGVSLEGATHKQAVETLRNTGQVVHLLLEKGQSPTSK
# T10: GST-NeDLG PDZ domains 1, 2, Q92796
# T10 chain: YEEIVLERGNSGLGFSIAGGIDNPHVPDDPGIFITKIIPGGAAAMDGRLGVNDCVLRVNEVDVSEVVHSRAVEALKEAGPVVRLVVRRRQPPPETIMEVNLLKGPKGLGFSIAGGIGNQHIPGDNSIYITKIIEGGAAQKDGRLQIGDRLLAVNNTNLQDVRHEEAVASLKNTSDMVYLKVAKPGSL
# T11: GST-KIAA1634 PDZ domain 2 (Homo sapiens (Human)), Q5TCQ9
# T11 chain: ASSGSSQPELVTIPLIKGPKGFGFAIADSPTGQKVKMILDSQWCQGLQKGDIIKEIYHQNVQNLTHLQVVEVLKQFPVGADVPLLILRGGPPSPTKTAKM
# T12: GST-KIAA0973 PDZ domain 1 (Homo sapiens (Human)), Q9Y2H9
# T12 chain: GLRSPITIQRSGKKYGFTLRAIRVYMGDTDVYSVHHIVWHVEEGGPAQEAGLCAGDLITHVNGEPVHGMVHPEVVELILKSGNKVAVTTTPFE
# T13: GST-TIP1 PDZ domain 1 (Table 9 insert) (Homo sapiens (Human)), O14907
# T13 chain: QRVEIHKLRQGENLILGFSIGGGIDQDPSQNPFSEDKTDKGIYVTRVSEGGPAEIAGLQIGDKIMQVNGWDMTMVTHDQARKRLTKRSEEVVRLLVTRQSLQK
# T14: GST-INADL PDZ domain 8 (Homo sapiens (Human)), Q8NI35
# T14 chain: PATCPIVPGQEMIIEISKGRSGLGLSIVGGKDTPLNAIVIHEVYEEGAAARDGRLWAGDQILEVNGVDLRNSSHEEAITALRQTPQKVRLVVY
# T15: GST-MUPP1 PDZ domain 10 (Homo sapiens (Human)), O75970
# T15 chain: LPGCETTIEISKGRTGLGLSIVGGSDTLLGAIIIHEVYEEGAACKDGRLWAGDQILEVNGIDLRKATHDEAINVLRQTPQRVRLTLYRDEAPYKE
# T16: GST-MINT1 PDZ domain 2 (Mus musculus (Mouse)), B2RUJ5
# T16 chain: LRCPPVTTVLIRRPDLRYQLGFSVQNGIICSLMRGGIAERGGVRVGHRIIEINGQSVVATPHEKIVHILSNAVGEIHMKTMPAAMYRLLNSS
# T17: GST-LIM-RIL PDZ domain 1 (Homo sapiens (Human)), P50479
# T17 chain: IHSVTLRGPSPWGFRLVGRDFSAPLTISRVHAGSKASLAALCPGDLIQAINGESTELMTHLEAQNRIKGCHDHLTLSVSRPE
# T18: GST-KIAA1526 PDZ domain 1 (Homo sapiens (Human)), Q9P202
# T18 chain: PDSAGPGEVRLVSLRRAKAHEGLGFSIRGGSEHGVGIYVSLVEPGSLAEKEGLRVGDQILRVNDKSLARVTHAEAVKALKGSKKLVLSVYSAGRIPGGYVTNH
# Assays:
# Assay in all cases: G' assay
# [1] = molecular target: T1, GST-KIAA0807(S) PDZ domain 1 (Homo …)
# [2] = molecular target: T2, GST-Shank 1 PDZ domain 1 (Homo sapiens …)
# [3] = molecular target: GST-KIAA807 [GST: P08515]
# [4] = molecular target: GST-KIAA1634 PDZ domain 1 (Homo sapiens (Human)), Q5TCQ9
# [5] = molecular target: GST-DLG1 PDZ domains 1, 2 (Homo sapiens), Q12959
# [6] = molecular target: T3, GST-DLG1 PDZ domain 2 (Homo sapiens), …
# [7] = molecular target: GST-PAR3 PDZ domain 3 (Homo sapiens (Human)), Q8TEW0
# [8] = molecular target: T4, GST-MINT1 PDZ domains 1, 2, Q02410
# [9] = molecular target: T5, GST-PTPL1 PDZ domain 4 (Homo sapiens …)
# [10] = molecular target: T6, GST-APXL-1 PDZ domain 1 (Homo sapiens …)
# [11] = molecular target: T7, GST-AIPC PDZ domain 1 (Homo sapiens …)
# [12] = molecular target: T8, GST-KIAA0382 PDZ domain 1 (Canis lupus …)
# [13] = molecular target: T9, GST-PTPL1 PDZ domain 2 (Homo sapiens …)
# [14] = molecular target: GST-PSD95 PDZ domains 1, 2, 3 (Homo sapiens), P78352
# [15] = molecular target: T10, GST-NeDLG PDZ domains 1, 2, Q92796
# [16] = molecular target: T11, GST-KIAA1634 PDZ domain 2 (Homo sapiens …)
# [17] = molecular target: T12, GST-KIAA0973 PDZ domain 1 (Homo sapiens …)
# [18] = molecular target: T13, GST-TIP1 PDZ domain 1 (Table 9 insert) …
# [19] = molecular target: T14, GST-INADL PDZ domain 8 (Homo sapiens …)
# [20] = molecular target: T15, GST-MUPP1 PDZ domain 10 (Homo sapiens …)
# [21] = molecular target: T16, GST-MINT1 PDZ domain 2 (Mus musculus …)
# [22] = molecular target: GST-KIAA0147 PDZ domain 1 (Homo sapiens (Human)), Q14160
# [23] = molecular target: T17, GST-LIM-RIL PDZ domain 1 (Homo sapiens …)
# [24] = molecular target: T18, GST-KIAA1526 PDZ domain 1 (Homo sapiens …)
# [25] = molecular target: GST-BAI-1 Associated Protein PDZ domain 2 (Mus musculus (Mouse)), Q6RHR9
# Note: key of the grades not given here.
# GST-KIAA807 [GST: P08515], sequence (P08515 whole entry, the tested form may be a part): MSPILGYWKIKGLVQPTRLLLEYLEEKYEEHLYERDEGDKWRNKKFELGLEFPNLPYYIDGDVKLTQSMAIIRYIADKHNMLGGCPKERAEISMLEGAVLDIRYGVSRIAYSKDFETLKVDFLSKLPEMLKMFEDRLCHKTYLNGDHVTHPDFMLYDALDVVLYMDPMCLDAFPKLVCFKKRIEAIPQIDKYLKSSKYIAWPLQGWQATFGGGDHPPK
# GST-PAR3 PDZ domain 3 (Homo sapiens (Human)), Q8TEW0, sequence (Q8TEW0 579-681): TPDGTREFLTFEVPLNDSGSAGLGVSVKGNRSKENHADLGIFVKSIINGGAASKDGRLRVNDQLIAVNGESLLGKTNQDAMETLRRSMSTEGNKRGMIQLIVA
# GST-KIAA1634 PDZ domain 1 (Homo sapiens (Human)), Q5TCQ9, sequence (Q5TCQ9 401-502): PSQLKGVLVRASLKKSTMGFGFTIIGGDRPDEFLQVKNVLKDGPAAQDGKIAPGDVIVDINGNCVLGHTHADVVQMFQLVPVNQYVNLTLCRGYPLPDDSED
# GST-PSD95 PDZ domains 1, 2, 3 (Homo sapiens), P78352, sequence (P78352 62-395): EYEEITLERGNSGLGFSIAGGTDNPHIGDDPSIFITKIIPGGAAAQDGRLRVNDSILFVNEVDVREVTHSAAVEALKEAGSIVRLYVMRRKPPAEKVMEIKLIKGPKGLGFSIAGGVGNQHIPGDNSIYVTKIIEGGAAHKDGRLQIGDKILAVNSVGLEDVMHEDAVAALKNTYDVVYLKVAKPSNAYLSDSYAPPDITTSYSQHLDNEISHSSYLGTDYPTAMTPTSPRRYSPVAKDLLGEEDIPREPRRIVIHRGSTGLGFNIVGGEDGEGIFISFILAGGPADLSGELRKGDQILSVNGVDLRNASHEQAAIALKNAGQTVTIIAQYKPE
# GST-BAI-1 Associated Protein PDZ domain 2 (Mus musculus (Mouse)), Q6RHR9, sequence (Q6RHR9 455-558): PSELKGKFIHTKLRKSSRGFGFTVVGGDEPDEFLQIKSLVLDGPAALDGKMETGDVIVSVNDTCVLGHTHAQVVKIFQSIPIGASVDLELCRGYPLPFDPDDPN
# GST-KIAA0147 PDZ domain 1 (Homo sapiens (Human)), Q14160, sequence (Q14160 other isoform, or with tags, fused parts or gaps): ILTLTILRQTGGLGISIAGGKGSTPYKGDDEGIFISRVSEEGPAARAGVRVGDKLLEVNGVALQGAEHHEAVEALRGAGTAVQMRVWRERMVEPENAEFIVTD
binder,measurement,setting,value
KPQIAALKEETEEEVQDTRL (modifications not checked) [CFTCR (cystic fibrosis transmembrane conductance regulator)],Classification,[1],2 A450 class
same,Classification,[2],1 A450 class
same,Classification,[3],1 A450 class
GGEDFKTTNPSKQFDKNAYV (modifications not checked) [claudin 10],Classification,[4],1 A450 class
same,Classification,[5],1 A450 class
VDPNSPAAKKKYVSYNNLVI (modifications not checked) [GLUR7 (metabotropic glutamate receptor)],Classification,[4],1 A450 class
same,Classification,[6],1 A450 class
same,Classification,[7],2 A450 class
LGYSIPSRSGASGLDKRDYV (modifications not checked) [claudin 9],Classification,[8],1 A450 class
ESKSFTRSTVDTMAQKTQAV (modifications not checked) [C5 Anaphylatoxin receptor],Classification,[9],1 A450 class
PRLKRMQQFEDLEDEIPQFV (modifications not checked) [RhoGAP 1 (PTPL1-associated)],Classification,[9],2 A450 class
QQYQQRQSVIFHKRAPEQAL (modifications not checked) [muscarinic Ach receptor M4],Classification,[10],1 A450 class
same,Classification,[1],1 A450 class
same,Classification,[3],1 A450 class
same,Classification,[11],1 A450 class
SPQPDSTDNDDYDDISAA (modifications not checked) [CD6],Classification,[1],1 A450 class
same,Classification,[3],1 A450 class
KDSRPSFVGSSSGHTSTTL (modifications not checked) [CDw128B],Classification,[1],5 A450 class
same,Classification,[2],3 A450 class
same,Classification,[3],5 A450 class
same,Classification,[12],2 A450 class
HPTDITGLPNLSDPSVSTVV (modifications not checked) [NMDA R2C],Classification,[5],1 A450 class
same,Classification,[13],1 A450 class
same,Classification,[14],1 A450 class
same,Classification,[15],2 A450 class
same,Classification,[16],1 A450 class
NSYVRDDAIFIKAIVDLTGL (modifications not checked) [TRAF2],Classification,[1],4 A450 class
same,Classification,[17],1 A450 class
same,Classification,[3],2 A450 class
GPDGIITVNDFTQNPRVQLE (modifications not checked) [ropporin],Classification,[18],1 A450 class
ENLELPVNPSSVVSERISSV (modifications not checked) [serotonin receptor 5-HT-2C],Classification,[19],1 A450 class
same,Classification,[20],1 A450 class
IVFIIHSFLSAKVTRLGLLA (modifications not checked) [alpha-1-syntrophin],Classification,[1],1 A450 class
KAGYRAPRSYPKSNSSKEYV (modifications not checked) [claudin 7],Classification,[8],4 A450 class
LLNVLQRQELGDGLDDEIAV (modifications not checked) [CAPON (carboxyl-terminal PDZ ligand of neuronal nitric oxide synthase) mRNA],Classification,[10],1 A450 class
same,Classification,[1],1 A450 class
same,Classification,[9],1 A450 class
same,Classification,[3],1 A450 class
same,Classification,[11],1 A450 class
same,Classification,[7],1 A450 class
SYPTPRPYPKPAPSSGKDYV (modifications not checked) [claudin 1],Classification,[19],1 A450 class
same,Classification,[21],1 A450 class
PYQSQGFSTEEDEDEQVSAV (modifications not checked) [RA-GEF (ras/rap1A-assoc-GEF)],Classification,[22],1 A450 class
same,Classification,[13],4 A450 class
same,Classification,[16],2 A450 class
INSVGSTASSSQPLLVHDDV (modifications not checked) [c-kit receptor],Classification,[19],1 A450 class
same,Classification,[21],1 A450 class
same,Classification,[23],1 A450 class
same,Classification,[20],1 A450 class
SSPTYRALLLQGPSQSSSEA (modifications not checked) [GAIP (G-alpha interacting protein) RGS 19],Classification,[24],1 A450 class
DGGARTEDEVQSYPSKHDYV (modifications not checked) [claudin 18],Classification,[8],1 A450 class
RPMESNPDTEGAQGETEDVL (modifications not checked) [parathyroid hormone receptor 2],Classification,[10],1 A450 class
same,Classification,[7],1 A450 class
RDSFHRSSFRKAETQLSQGS (modifications not checked) [Clasp-5],Classification,[1],1 A450 class
same,Classification,[25],1 A450 class
same,Classification,[2],1 A450 class
same,Classification,[3],1 A450 class
VISKATPALPTVSISSSAEV (modifications not checked) [Clasp-1],Classification,[8],1 A450 class
same,Classification,[1],1 A450 class
same,Classification,[3],1 A450 class
same,Classification,[11],1 A450 class
